Test results as given in patent US20250073302A1 (PURDUE RESEARCH FOUNDATION, published 2025).
Non-standard residues stand in square brackets, D forms with d. Bpa = N[C@@H](Cc1ccc(C(=O)c2ccccc2)cc1)C(=O)O; dBpa = N[C@H](Cc1ccc(C(=O)c2ccccc2)cc1)C(=O)O; dPhe(3,4-F2) = N[C@H](Cc1ccc(F)c(F)c1)C(=O)O; Phe(3-F) = N[C@@H](Cc1cccc(F)c1)C(=O)O; Phe(4-F) = N[C@@H](Cc1ccc(F)cc1)C(=O)O; dPhe(3-F) = N[C@H](Cc1cccc(F)c1)C(=O)O; dPhe(4-F) = N[C@H](Cc1ccc(F)cc1)C(=O)O; dPra = C#CC[C@@H](N)C(=O)O; Dap = NC[C@H](N)C(=O)O

B1: CyPPS6 (peptide)
peptide: cyclo(T[dL]F[dF]A[dR])
SMILES: CC(C)C[C@H]1NC(=O)[C@H]([C@@H](C)O)NC(=O)[C@@H](CCCNC(=N)N)NC(=O)[C@H](C)NC(=O)[C@@H](Cc2ccccc2)NC(=O)[C@H](Cc2ccccc2)NC1=O
B2: CyPPS29 (peptide)
peptide: cyclo(T[dL]L[dF]R[dA])
SMILES: CC(C)C[C@@H]1NC(=O)[C@@H](CC(C)C)NC(=O)[C@H]([C@@H](C)O)NC(=O)[C@@H](C)NC(=O)[C@H](CCCNC(=N)N)NC(=O)[C@@H](Cc2ccccc2)NC1=O
B3: CyPPS12 (peptide)
peptide: cyclo(T[dI]F[dF]R[dA])
SMILES: CC[C@@H](C)[C@H]1NC(=O)[C@H]([C@@H](C)O)NC(=O)[C@@H](C)NC(=O)[C@H](CCCNC(=N)N)NC(=O)[C@@H](Cc2ccccc2)NC(=O)[C@H](Cc2ccccc2)NC1=O
B4: CyPPS17 (peptide)
peptide: cyclo(T[dL]F[dY]R[dA])
SMILES: CC(C)C[C@H]1NC(=O)[C@H]([C@@H](C)O)NC(=O)[C@@H](C)NC(=O)[C@H](CCCNC(=N)N)NC(=O)[C@@H](Cc2ccc(O)cc2)NC(=O)[C@H](Cc2ccccc2)NC1=O
B5: CyPPS34 (peptide)
peptide: cyclo(TAF[dF]A[dR])
SMILES: C[C@@H]1NC(=O)[C@H]([C@@H](C)O)NC(=O)[C@@H](CCCNC(=N)N)NC(=O)[C@H](C)NC(=O)[C@@H](Cc2ccccc2)NC(=O)[C@H](Cc2ccccc2)NC1=O
B6: CyPPS35 (peptide)
peptide: cyclo(T[dA]F[dF]A[dR])
SMILES: C[C@@H]1NC(=O)[C@@H](Cc2ccccc2)NC(=O)[C@H](Cc2ccccc2)NC(=O)[C@@H](C)NC(=O)[C@H]([C@@H](C)O)NC(=O)[C@@H](CCCNC(=N)N)NC1=O
B7: CyPPS19 (peptide)
peptide: cyclo(T[dL]F[dPhe(3-F)]R[dA])
SMILES: CC(C)C[C@H]1NC(=O)[C@H]([C@@H](C)O)NC(=O)[C@@H](C)NC(=O)[C@H](CCCNC(=N)N)NC(=O)[C@@H](Cc2cccc(F)c2)NC(=O)[C@H](Cc2ccccc2)NC1=O
B8: CyPPS21 (peptide)
peptide: cyclo(T[dL]F[dBpa]R[dA])
SMILES: CC(C)C[C@H]1NC(=O)[C@H]([C@@H](C)O)NC(=O)[C@@H](C)NC(=O)[C@H](CCCNC(=N)N)NC(=O)[C@@H](Cc2ccc(C(=O)c3ccccc3)cc2)NC(=O)[C@H](Cc2ccccc2)NC1=O
B9: CyPPS5 (peptide)
peptide: cyclo(T[dL]F[dA]R[dA])
SMILES: CC(C)C[C@H]1NC(=O)[C@H]([C@@H](C)O)NC(=O)[C@@H](C)NC(=O)[C@H](CCCNC(=N)N)NC(=O)[C@@H](C)NC(=O)[C@H](Cc2ccccc2)NC1=O
B10: CyPPS27 (peptide)
peptide: cyclo(TVF[dF]A[dR])
SMILES: CC(C)[C@@H]1NC(=O)[C@H]([C@@H](C)O)NC(=O)[C@@H](CCCNC(=N)N)NC(=O)[C@H](C)NC(=O)[C@@H](Cc2ccccc2)NC(=O)[C@H](Cc2ccccc2)NC1=O
B11: CyPPS22 (peptide)
peptide: cyclo(T[dL]F[dF]R[dS])
SMILES: CC(C)C[C@H]1NC(=O)[C@H]([C@@H](C)O)NC(=O)[C@@H](CO)NC(=O)[C@H](CCCNC(=N)N)NC(=O)[C@@H](Cc2ccccc2)NC(=O)[C@H](Cc2ccccc2)NC1=O
B12: CyPPS31 (peptide)
peptide: cyclo(T[dL][Phe(3-F)][dF]R[dA])
SMILES: CC(C)C[C@H]1NC(=O)[C@H]([C@@H](C)O)NC(=O)[C@@H](C)NC(=O)[C@H](CCCNC(=N)N)NC(=O)[C@@H](Cc2ccccc2)NC(=O)[C@H](Cc2cccc(F)c2)NC1=O
B13: CyPPS28 (peptide)
peptide: cyclo(T[dV]F[dF]A[dR])
SMILES: CC(C)[C@H]1NC(=O)[C@H]([C@@H](C)O)NC(=O)[C@@H](CCCNC(=N)N)NC(=O)[C@H](C)NC(=O)[C@@H](Cc2ccccc2)NC(=O)[C@H](Cc2ccccc2)NC1=O
B14: CyPPS11 (peptide)
peptide: cyclo(T[dK]F[dF]R[dA])
SMILES: C[C@H]1NC(=O)[C@H](CCCNC(=N)N)NC(=O)[C@@H](Cc2ccccc2)NC(=O)[C@H](Cc2ccccc2)NC(=O)[C@@H](CCCCN)NC(=O)[C@H]([C@@H](C)O)NC1=O
B15: CyPPS3 (peptide)
peptide: cyclo(T[dA]F[dF]R[dA])
SMILES: C[C@H]1NC(=O)[C@H](CCCNC(=N)N)NC(=O)[C@@H](Cc2ccccc2)NC(=O)[C@H](Cc2ccccc2)NC(=O)[C@@H](C)NC(=O)[C@H]([C@@H](C)O)NC1=O
B16: CyPPS36 (peptide)
peptide: cyclo(A[dA]F[dF]A[dR])
SMILES: C[C@@H]1NC(=O)[C@@H](CCCNC(=N)N)NC(=O)[C@H](C)NC(=O)[C@@H](Cc2ccccc2)NC(=O)[C@H](Cc2ccccc2)NC(=O)[C@@H](C)NC1=O
B17: CyPPS18 (peptide)
peptide: cyclo(T[dL]F[dPhe(4-F)]R[dA])
SMILES: CC(C)C[C@H]1NC(=O)[C@H]([C@@H](C)O)NC(=O)[C@@H](C)NC(=O)[C@H](CCCNC(=N)N)NC(=O)[C@@H](Cc2ccc(F)cc2)NC(=O)[C@H](Cc2ccccc2)NC1=O
B18: CyPPS25 (peptide)
peptide: cyclo([dL]F[dF]K[dA])
SMILES: CC(C)C[C@H]1NC(=O)[C@@H](C)NC(=O)[C@H](CCCCN)NC(=O)[C@@H](Cc2ccccc2)NC(=O)[C@H](Cc2ccccc2)NC1=O
B19: CyPPS16 (peptide)
peptide: cyclo(T[dL]Y[dF]R[dA])
SMILES: CC(C)C[C@H]1NC(=O)[C@H]([C@@H](C)O)NC(=O)[C@@H](C)NC(=O)[C@H](CCCNC(=N)N)NC(=O)[C@@H](Cc2ccccc2)NC(=O)[C@H](Cc2ccc(O)cc2)NC1=O
B20: CyPPS30 (peptide)
peptide: cyclo(T[dL]R[dF]R[dA])
SMILES: CC(C)C[C@H]1NC(=O)[C@H]([C@@H](C)O)NC(=O)[C@@H](C)NC(=O)[C@H](CCCNC(=N)N)NC(=O)[C@@H](Cc2ccccc2)NC(=O)[C@H](CCCNC(=N)N)NC1=O
B21: CyPPS10 (peptide)
peptide: cyclo(T[dD]F[dF]R[dA])
SMILES: C[C@H]1NC(=O)[C@H](CCCNC(=N)N)NC(=O)[C@@H](Cc2ccccc2)NC(=O)[C@H](Cc2ccccc2)NC(=O)[C@@H](CC(=O)O)NC(=O)[C@H]([C@@H](C)O)NC1=O
B22: CyPPS15 (peptide)
peptide: cyclo(T[dL][Phe(4-F)][dF]R[dA])
SMILES: CC(C)C[C@H]1NC(=O)[C@H]([C@@H](C)O)NC(=O)[C@@H](C)NC(=O)[C@H](CCCNC(=N)N)NC(=O)[C@@H](Cc2ccccc2)NC(=O)[C@H](Cc2ccc(F)cc2)NC1=O
B23: CyPPS2 (peptide)
peptide: cyclo(A[dL]F[dF]R[dA])
SMILES: CC(C)C[C@H]1NC(=O)[C@H](C)NC(=O)[C@@H](C)NC(=O)[C@H](CCCNC(=N)N)NC(=O)[C@@H](Cc2ccccc2)NC(=O)[C@H](Cc2ccccc2)NC1=O
B24: CyPPS4 (peptide)
peptide: cyclo(T[dL]A[dF]R[dA])
SMILES: CC(C)C[C@H]1NC(=O)[C@H]([C@@H](C)O)NC(=O)[C@@H](C)NC(=O)[C@H](CCCNC(=N)N)NC(=O)[C@@H](Cc2ccccc2)NC(=O)[C@H](C)NC1=O
B25: CyPPS32 (peptide)
peptide: cyclo(T[dL][Bpa][dF]R[dA])
SMILES: CC(C)C[C@H]1NC(=O)[C@H]([C@@H](C)O)NC(=O)[C@@H](C)NC(=O)[C@H](CCCNC(=N)N)NC(=O)[C@@H](Cc2ccccc2)NC(=O)[C@H](Cc2ccc(C(=O)c3ccccc3)cc2)NC1=O
B26: CyPPS20 (peptide)
peptide: cyclo(T[dL]F[dPhe(3,4-F2)]R[dA])
SMILES: CC(C)C[C@H]1NC(=O)[C@H]([C@@H](C)O)NC(=O)[C@@H](C)NC(=O)[C@H](CCCNC(=N)N)NC(=O)[C@@H](Cc2ccc(F)c(F)c2)NC(=O)[C@H](Cc2ccccc2)NC1=O

Biological target: 20S core particle (CP) proteasome
Test: cell-based or functional assay

Row | Binder | TAS-1 (percent stimulation of 20S CP)
1 | B1 | 305 % of DMSO
2 | B2 | 152 % of DMSO
3 | B3 | 124 % of DMSO
4 | B4 | 203 % of DMSO
5 | B5 | 126 % of DMSO
6 | B6 | 259 % of DMSO
7 | B7 | 287 % of DMSO
8 | B8 | 278 % of DMSO
9 | B9 | 170 % of DMSO
10 | B10 | 109 % of DMSO
11 | B11 | 298 % of DMSO
12 | B12 | 199 % of DMSO
13 | B13 | 289 % of DMSO
14 | B14 | 101 % of DMSO
15 | B15 | 178 % of DMSO
16 | cyclo(T[dL]F[dF][Dap][dR]) (also: AA5 described as D-Dap in one passage, DAP in another) [CyPPS24] | 370 % of DMSO
17 | B16 | 185 % of DMSO
18 | B17 | 246 % of DMSO
19 | B18 | 297 % of DMSO
20 | B19 | 198 % of DMSO
21 | B20 | 212 % of DMSO
22 | B21 | 173 % of DMSO
23 | cyclo(T[dL]F[dF]R[dPra]) [CyPPS33] | 238 % of DMSO
24 | B22 | 280 % of DMSO
25 | B23 | 241 % of DMSO
26 | B24 | 275 % of DMSO
27 | B25 | 242 % of DMSO
28 | B26 | 283 % of DMSO
